The values that follow come from publication PMC4140749, “Identification of a Novel Hypocholesterolemic Protein, Major Royal Jelly Protein 1, Derived from Royal Jelly” (PLoS ONE, 2014).

The data set deals with the molecule itself. The data set is described as follows: SEC; 10-kDa cut-off royal jelly applied to HiLoad 26/60 Superdex 200 p.g.; 150 mM NaCl, 20 mM phosphate buffer pH 7.5; molecular weight calibrated with standard proteins; peak resolved by 15% SDS-PAGE. (In general: In gel filtration, larger molecules generally elute earlier.)

B1: major royal jelly protein 1 (natural protein, Apis mellifera, UniProt O18330 20-432, looked up)
chain: NILRGESLNKSLPILHEWKFFDYDFGSDERRQDAILSGEYDYKNNYPSDIDQWHDKIFVTMLRYNGVPSSLNVISKKVGDGGPLLQPYPDWSFAKYDDCSGIVSASKLAIDKCDRLWVLDSGLVNNTQPMCSPKLLTFDLTTSQLLKQVEIPHDVAVNATTGKGRLSSLAVQSLDCNTNSDTMVYIADEKGEGLIVYHNSDDSFHRLTSNTFDYDPKFTKMTIDGESYTAQDGISGMALSPMTNNLYYSPVASTSLYYVNTEQFRTSDYQQNDIHYEGVQNILDTQSSAKVVSKSGVLFFGLVGDSALGCWNEHRTLERHNIRTVAQSDETLQMIASMKIKEALPHVPIFDRYINREYILVLSNKMQKMVNNDFNFDDVNFRIMNANVNELILNTRCENPDNDRTPFKISIHL
notes: Major royal jelly protein 1 (MRJP1), Apis mellifera; 55 kDa on SDS-PAGE; Native protein isolated from royal jelly and identified by MALDI-TOF/MS; The introduction calls MRJPs glycoproteins; also called MRJP1; major RJ protein 1; source: purified from royal jelly (10-kDa cut-off RJ, size-exclusion chromatography on Superdex 200)
As to B1, the “stoichiometry N” value was roughly 5.

In general, stoichiometry N refers to a count of units in the complex or per binding partner.
